Assays:
[1] = system: AncSZ; experiment: phosphorylation enrichment, bacterial display (enrichment ratio); higher = better substrate or ligand; peptides without Tyr show the background
[2] = target: EPHB1 (UniProt P54762); experiment: as above
[3] = target: EPHB2 (UniProt P29323); experiment: as above
[4] = target: FGFR1 (UniProt P11362); experiment: as above
[5] = target: FGFR3 (UniProt P22607); experiment: as above
[6] = system: Fer (mouse); experiment: as above
[7] = target: Fes (UniProt P07332); experiment: as above
Fes, sequence (P07332 whole entry, looked up): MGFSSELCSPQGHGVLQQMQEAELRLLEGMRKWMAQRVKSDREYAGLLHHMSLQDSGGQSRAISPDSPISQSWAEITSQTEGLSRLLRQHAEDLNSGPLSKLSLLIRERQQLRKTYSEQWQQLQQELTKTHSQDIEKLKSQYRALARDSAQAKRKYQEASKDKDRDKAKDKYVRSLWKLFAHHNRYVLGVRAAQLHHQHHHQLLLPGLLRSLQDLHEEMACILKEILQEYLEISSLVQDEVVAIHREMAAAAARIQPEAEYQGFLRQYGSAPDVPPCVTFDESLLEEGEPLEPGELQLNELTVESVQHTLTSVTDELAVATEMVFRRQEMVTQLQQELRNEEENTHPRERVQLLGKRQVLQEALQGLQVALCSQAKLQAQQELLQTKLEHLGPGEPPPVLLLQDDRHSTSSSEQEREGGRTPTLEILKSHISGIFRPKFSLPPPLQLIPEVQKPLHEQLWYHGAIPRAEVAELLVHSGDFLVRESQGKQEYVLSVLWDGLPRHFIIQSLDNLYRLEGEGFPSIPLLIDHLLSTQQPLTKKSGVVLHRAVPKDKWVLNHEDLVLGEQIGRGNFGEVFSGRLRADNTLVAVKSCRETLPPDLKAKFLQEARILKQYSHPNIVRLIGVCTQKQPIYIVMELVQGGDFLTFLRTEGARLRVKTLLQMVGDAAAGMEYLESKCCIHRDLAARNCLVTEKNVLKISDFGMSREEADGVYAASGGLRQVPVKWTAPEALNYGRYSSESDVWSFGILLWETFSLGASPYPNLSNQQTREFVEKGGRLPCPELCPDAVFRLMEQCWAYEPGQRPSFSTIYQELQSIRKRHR

[8] = target: Fyn (UniProt P06241); experiment: as above
Fyn, sequence (P06241 whole entry, looked up): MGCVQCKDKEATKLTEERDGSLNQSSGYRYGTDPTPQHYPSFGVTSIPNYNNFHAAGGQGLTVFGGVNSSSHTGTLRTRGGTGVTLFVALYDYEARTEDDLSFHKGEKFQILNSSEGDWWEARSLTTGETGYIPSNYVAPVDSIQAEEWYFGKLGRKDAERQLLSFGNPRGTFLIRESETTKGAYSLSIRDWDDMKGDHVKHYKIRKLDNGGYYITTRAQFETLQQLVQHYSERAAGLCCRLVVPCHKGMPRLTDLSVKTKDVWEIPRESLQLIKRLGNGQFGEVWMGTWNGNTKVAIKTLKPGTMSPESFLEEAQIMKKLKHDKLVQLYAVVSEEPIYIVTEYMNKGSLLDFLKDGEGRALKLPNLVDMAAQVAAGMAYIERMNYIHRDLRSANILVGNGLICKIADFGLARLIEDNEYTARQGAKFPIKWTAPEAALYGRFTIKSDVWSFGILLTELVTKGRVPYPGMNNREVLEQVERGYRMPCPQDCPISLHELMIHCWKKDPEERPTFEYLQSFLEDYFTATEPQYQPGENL

[9] = target: Hck (UniProt P08631); experiment: as above
Hck, sequence (P08631 whole entry, looked up): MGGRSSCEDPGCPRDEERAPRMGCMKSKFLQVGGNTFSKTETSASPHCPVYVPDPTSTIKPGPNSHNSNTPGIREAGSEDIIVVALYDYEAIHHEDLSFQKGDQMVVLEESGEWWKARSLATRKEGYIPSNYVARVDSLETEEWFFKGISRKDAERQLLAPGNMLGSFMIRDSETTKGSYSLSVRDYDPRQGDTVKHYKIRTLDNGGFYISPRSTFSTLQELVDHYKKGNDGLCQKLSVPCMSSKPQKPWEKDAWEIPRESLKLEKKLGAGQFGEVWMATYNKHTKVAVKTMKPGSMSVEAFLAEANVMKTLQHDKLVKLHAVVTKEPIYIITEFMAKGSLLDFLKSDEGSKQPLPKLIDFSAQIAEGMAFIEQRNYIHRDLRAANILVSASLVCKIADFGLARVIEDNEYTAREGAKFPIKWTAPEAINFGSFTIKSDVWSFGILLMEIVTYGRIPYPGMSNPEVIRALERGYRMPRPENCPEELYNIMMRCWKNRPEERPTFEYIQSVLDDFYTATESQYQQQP

[10] = target: Jak2 (UniProt O60674); experiment: as above
[11] = target: MERTK (UniProt Q12866); experiment: as above
MERTK, sequence (Q12866 whole entry, looked up): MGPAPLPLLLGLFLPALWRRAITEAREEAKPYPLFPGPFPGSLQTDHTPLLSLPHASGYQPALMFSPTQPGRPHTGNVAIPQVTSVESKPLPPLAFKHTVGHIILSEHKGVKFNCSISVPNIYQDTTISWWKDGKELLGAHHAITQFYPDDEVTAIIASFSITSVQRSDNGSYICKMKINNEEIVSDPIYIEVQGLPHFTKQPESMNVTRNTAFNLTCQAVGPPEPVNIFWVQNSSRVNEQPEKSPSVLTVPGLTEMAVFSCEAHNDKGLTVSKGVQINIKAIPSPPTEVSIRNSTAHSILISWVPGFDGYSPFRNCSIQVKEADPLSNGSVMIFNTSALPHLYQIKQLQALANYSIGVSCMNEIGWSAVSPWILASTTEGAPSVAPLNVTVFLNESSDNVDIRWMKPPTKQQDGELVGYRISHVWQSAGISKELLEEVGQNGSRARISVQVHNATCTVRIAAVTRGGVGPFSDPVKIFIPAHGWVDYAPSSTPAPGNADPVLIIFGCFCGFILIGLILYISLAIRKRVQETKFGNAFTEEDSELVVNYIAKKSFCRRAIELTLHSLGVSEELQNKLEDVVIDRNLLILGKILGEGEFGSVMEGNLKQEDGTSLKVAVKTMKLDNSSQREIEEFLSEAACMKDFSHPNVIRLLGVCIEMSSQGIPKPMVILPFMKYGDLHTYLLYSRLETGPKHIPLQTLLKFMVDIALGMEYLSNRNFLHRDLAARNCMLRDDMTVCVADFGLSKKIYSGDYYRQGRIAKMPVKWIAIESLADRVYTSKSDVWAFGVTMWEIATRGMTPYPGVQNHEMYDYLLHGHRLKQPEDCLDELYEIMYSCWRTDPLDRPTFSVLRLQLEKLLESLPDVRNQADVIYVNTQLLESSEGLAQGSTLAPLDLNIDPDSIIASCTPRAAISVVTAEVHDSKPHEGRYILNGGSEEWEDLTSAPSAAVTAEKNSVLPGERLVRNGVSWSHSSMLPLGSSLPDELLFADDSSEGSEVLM

[12] = system: c-Abl (mouse); experiment: as above
[13] = system: c-Src; experiment: as above
[14] = target: Grb2 SH2 (UniProt P62993); experiment: SH2 binding enrichment of the phosphorylated peptide, bacterial display (enrichment ratio); higher = better substrate or ligand; peptides without Tyr show the background
Grb2 SH2, sequence (P62993 whole entry, looked up): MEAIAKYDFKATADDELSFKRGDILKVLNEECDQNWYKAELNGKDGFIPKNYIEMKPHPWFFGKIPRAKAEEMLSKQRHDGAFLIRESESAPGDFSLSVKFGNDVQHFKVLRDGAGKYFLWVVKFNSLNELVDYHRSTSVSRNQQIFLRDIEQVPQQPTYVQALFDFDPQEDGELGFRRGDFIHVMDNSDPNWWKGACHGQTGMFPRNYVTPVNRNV

[15] = target: SHP2-C SH2; experiment: as above
[16] = target: c-Src SH2; experiment: as above
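Throughout, for SH2 binding enrichment of the phosphorylated peptide, bacterial display: peptide library displayed on the E. coli surface as eCPX fusions, selected cells deep-sequenced, score is each peptide's frequency after selection divided by its frequency in the input.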
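Throughout, for phosphorylation enrichment, bacterial display: 11-residue human phosphosite peptides and single-mutation variants displayed on the E. coli surface, counted by deep sequencing, each peptide's frequency after selection divided by its frequency in the unselected input library; frequency after pTyr selection over input frequency; kinase dosed for 20-30% of maximal phosphorylation in three min.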

FGFR3, sequence (P22607 whole entry, looked up): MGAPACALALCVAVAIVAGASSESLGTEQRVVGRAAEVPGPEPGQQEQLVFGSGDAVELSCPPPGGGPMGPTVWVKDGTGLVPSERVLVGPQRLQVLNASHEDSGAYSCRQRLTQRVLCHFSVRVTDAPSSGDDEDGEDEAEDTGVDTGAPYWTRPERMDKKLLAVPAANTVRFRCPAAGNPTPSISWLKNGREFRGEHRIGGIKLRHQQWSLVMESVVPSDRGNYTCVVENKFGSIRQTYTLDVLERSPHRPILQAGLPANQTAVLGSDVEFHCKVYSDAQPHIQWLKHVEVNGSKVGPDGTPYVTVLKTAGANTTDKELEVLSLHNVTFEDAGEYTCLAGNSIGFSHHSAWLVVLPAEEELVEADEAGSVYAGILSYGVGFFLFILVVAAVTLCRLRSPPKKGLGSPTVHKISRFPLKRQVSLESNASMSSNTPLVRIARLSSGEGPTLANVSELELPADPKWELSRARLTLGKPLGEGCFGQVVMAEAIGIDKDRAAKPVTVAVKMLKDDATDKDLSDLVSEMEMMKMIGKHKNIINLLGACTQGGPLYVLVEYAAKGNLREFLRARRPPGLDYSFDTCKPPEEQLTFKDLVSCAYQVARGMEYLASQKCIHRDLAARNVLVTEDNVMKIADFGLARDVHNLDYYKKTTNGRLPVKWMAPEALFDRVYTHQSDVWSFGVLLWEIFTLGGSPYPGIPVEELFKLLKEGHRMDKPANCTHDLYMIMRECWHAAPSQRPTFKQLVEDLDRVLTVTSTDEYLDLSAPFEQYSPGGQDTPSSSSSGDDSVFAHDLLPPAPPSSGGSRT
FGFR1, sequence (P11362 whole entry, looked up): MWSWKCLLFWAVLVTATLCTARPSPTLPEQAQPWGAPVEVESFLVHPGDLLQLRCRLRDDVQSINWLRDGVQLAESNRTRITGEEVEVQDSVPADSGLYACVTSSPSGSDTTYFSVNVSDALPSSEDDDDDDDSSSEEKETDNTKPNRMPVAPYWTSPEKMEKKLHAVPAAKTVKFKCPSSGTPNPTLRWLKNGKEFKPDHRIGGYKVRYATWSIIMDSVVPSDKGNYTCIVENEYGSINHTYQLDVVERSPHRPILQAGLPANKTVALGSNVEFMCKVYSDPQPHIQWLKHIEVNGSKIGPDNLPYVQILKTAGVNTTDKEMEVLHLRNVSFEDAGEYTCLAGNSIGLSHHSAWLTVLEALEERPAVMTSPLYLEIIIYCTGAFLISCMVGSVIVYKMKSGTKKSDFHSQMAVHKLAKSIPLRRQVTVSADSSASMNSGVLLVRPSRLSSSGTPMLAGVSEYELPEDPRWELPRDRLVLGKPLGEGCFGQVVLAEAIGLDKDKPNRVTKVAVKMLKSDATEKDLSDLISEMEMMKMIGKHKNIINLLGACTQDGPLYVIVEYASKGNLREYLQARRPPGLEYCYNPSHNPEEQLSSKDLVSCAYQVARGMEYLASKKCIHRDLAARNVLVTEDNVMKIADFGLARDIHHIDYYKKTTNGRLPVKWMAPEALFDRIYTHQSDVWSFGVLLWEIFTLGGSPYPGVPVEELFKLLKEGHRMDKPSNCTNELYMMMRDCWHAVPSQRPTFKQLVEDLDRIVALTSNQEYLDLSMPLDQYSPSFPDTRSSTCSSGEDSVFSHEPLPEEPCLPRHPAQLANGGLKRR

Sequence | phosphorylation enrichment [1] | phosphorylation enrichment [2] | phosphorylation enrichment [3] | phosphorylation enrichment [4] | phosphorylation enrichment [5] | phosphorylation enrichment [6] | phosphorylation enrichment [7] | phosphorylation enrichment [8] | phosphorylation enrichment [9] | phosphorylation enrichment [10] | phosphorylation enrichment [11] | phosphorylation enrichment [12] | phosphorylation enrichment [13] | SH2 binding enrichment [14] | SH2 binding enrichment [15] | SH2 binding enrichment [16]
FDCGMYSHLQG [LGR4_Y848_YF] | 1.37 | 1.08 | 0.969 | 0.89 | 1 | 1.64 | 1.31 | 0.985 | 3.54 | 1.18 | 4.74 | 1.07 | 3.25 | 0.727 | 1 | 1.79
FDCKWYIPLTD [BCR_Y756_YF] | 1.45 | 0.998 | 0.818 | 0.661 | 1.06 | 0.66 | 1.49 | 0.41 | 0.581 | 1.44 | 0.625 | 0.826 | 0.466 | 0.772 | 0.745 | 0.482
FEGAIYRKDVG [GART_Y417] | 0.645 | 0.332 | 0.312 | 0.347 | 0.539 | 0.662 | 0.707 | 0.405 | 0.514 | 0.467 | 0.288 | 0.457 | 0.393 | 0.664 | 0.582 | 0.451
FEPWVYSFSFE [PRKDC_Y647_YF] | 1.59 | 0.775 | 0.744 | 0.653 | 1.03 | 1.34 | 1.65 | 6.63 | 3.01 | 1.25 | 1.66 | 0.842 | 6.33 | 0.736 | 0.738 | 0.551
FEPWVYSFSYE [PRKDC_Y647] | 1.43 | 0.759 | 0.654 | 0.655 | 1.03 | 1.35 | 1.36 | 6.53 | 2.94 | 1.3 | 1.22 | 0.861 | 5.83 | 0.767 | 0.592 | 0.705
FETVKYINNER [ABCB7_Y345_F346I_YF] | 0.903 | 0.46 | 0.403 | 0.525 | 0.64 | 0.424 | 0.954 | 0.452 | 0.472 | 0.712 | 0.418 | 0.617 | 0.431 | 1.23 | 0.713 | 0.441
FFRRHYPLTTL [TNS4_Y644] | 0.995 | 0.408 | 0.497 | 0.426 | 0.467 | 0.455 | 0.917 | 0.426 | 0.399 | 0.876 | 0.491 | 0.587 | 0.516 | 1.15 | 0.566 | 0.422
FGFPGYQCKHF [TIMP3_Y177_S179C_YF] | 0.695 | 0.337 | 0.514 | 0.517 | 0.535 | 0.473 | 0.789 | 0.445 | 0.506 | 0.831 | 0.542 | 0.716 | 0.548 | 1.37 | 0.703 | 0.83
FGLDHYQCDCT [PTGS1_Y54_R53H] | 0.956 | 0.401 | 0.5 | 0.453 | 0.68 | 0.464 | 0.986 | 0.379 | 0.424 | 0.812 | 0.489 | 0.61 | 0.464 | 1.13 | 1.59 | 1.14
FGLTLYPNSRE [MEP1A_Y472_V469L] | 0.911 | 0.55 | 0.56 | 0.682 | 0.698 | 0.413 | 1.09 | 0.471 | 0.397 | 0.68 | 0.385 | 0.629 | 0.394 | 1.12 | 0.893 | 0.661
FIATQYSLCPR [LBR_Y166_R169C_YF] | 1.03 | 0.618 | 0.666 | 0.475 | 0.762 | 0.631 | 1.07 | 0.486 | 0.749 | 1.14 | 0.752 | 0.777 | 0.683 | 1.02 | 0.851 | 0.687
FIGRIYLYLTK [GARS1_Y414] | 1.64 | 0.556 | 0.39 | 0.487 | 0.627 | 0.535 | 1.12 | 0.445 | 0.416 | 1.14 | 0.538 | 1.18 | 0.469 | 1.05 | 1.25 | 0.74
FIRRDYEACKA [BBS4_Y48_K46R_YF] | 0.761 | 0.514 | 0.59 | 0.45 | 0.494 | 0.434 | 0.758 | 0.525 | 0.442 | 0.573 | 0.4 | 0.549 | 0.616 | 0.918 | 1.01 | 0.682
FISVGYVDDTQ [HLA-B_Y51] | 0.808 | 0.507 | 0.593 | 0.556 | 0.743 | 0.471 | 1.05 | 0.47 | 0.444 | 0.801 | 0.432 | 0.752 | 0.405 | 1 | 0.747 | 0.599
FLAVGYHQPHI [IDS_Y225_K227Q] | 0.559 | 0.448 | 0.415 | 0.391 | 0.514 | 0.35 | 0.593 | 0.418 | 0.405 | 0.447 | 0.298 | 0.57 | 0.297 | 0.879 | 1.25 | 1.55
FMFKVYSDPQP [FGFR1_Y280_C277Y_YF] | 1.54 | 1.08 | 0.845 | 0.572 | 1.08 | 0.679 | 1.68 | 0.596 | 0.667 | 1.49 | 0.438 | 1.16 | 0.398 | 0.693 | 0.566 | 0.49
FNDSAYNQQLI [ZPLD1_Y198_T197A_YF] | 0.641 | 0.489 | 0.383 | 0.338 | 0.451 | 0.326 | 0.672 | 0.393 | 0.455 | 0.5 | 0.297 | 0.485 | 0.421 | 0.705 | 0.423 | 0.431

Sequence | phosphorylation enrichment [1] | phosphorylation enrichment [2] | phosphorylation enrichment [3] | phosphorylation enrichment [4] | phosphorylation enrichment [5] | phosphorylation enrichment [6] | phosphorylation enrichment [7] | phosphorylation enrichment [8] | phosphorylation enrichment [9] | phosphorylation enrichment [10] | phosphorylation enrichment [11] | phosphorylation enrichment [12] | phosphorylation enrichment [13] | SH2 binding enrichment [14] | SH2 binding enrichment [15] | SH2 binding enrichment [16]
FPCSVYMPDEW [INSR_Y1011_V1012M] | 1.19 | 0.6 | 0.644 | 0.658 | 0.712 | 0.512 | 1.06 | 0.875 | 0.596 | 1.1 | 0.559 | 0.687 | 3.15 | 1 | 0.956 | 0.989
FPKARYHWLVL [APTX_Y214_YF] | 1.03 | 0.588 | 0.457 | 0.645 | 0.777 | 0.675 | 0.945 | 0.491 | 0.53 | 0.772 | 0.731 | 0.647 | 0.39 | 1.5 | 1.94 | 1.42
FPQARYHWLVL [APTX_Y214_K211Q_YF] | 0.913 | 0.568 | 0.597 | 1.92 | 1.48 | 0.539 | 1.22 | 0.459 | 0.543 | 1.28 | 1.24 | 0.858 | 0.522 | 1.25 | 1.47 | 1.13
FRASFYRRGDR [LTK_Y677_YF] | 0.756 | 0.543 | 0.552 | 0.549 | 0.526 | 0.456 | 0.631 | 0.617 | 0.463 | 0.583 | 0.722 | 0.634 | 0.709 | 0.542 | 0.471 | 0.379
FRVAGYETQGG [TIA1_Y383_YF] | 0.68 | 0.428 | 0.41 | 0.449 | 0.553 | 0.43 | 0.897 | 0.409 | 0.46 | 0.722 | 0.437 | 0.64 | 0.463 | 0.822 | 0.745 | 0.466
FSAGTYPRLEE [SYCN_Y108] | 0.765 | 0.493 | 0.464 | 0.464 | 0.659 | 0.464 | 0.918 | 0.41 | 0.406 | 0.828 | 0.372 | 0.672 | 0.392 | 0.783 | 0.612 | 1.18
FSCLPCGRLAF [SLC52A2_Y305_Y305C_YF] | 0.752 | 0.442 | 0.404 | 0.657 | 0.542 | 0.423 | 0.868 | 0.354 | 0.389 | 0.67 | 0.532 | 0.55 | 0.33 | 1.36 | 1.38 | 1.62
FSCLPYGRLAF [SLC52A2_Y305_YF] | 0.935 | 0.352 | 0.55 | 0.71 | 0.649 | 0.559 | 1.01 | 0.629 | 0.936 | 1.03 | 0.56 | 0.882 | 2.36 | 0.793 | 0.538 | 0.777
FSCLPYGRLAY [SLC52A2_Y305] | 1.01 | 0.559 | 0.513 | 0.463 | 0.641 | 0.619 | 0.98 | 0.618 | 0.894 | 0.782 | 0.393 | 0.595 | 1.84 | 0.804 | 0.465 | 0.455
FSEVRYVKEPY [HIPK4_Y170] | 0.9 | 0.474 | 0.449 | 0.668 | 0.538 | 0.404 | 1.06 | 0.372 | 0.388 | 1.06 | 0.371 | 0.783 | 0.392 | 0.908 | 0.52 | 0.624
FSGLAYTMERS [GLUD1_Y512_H507Y_YF] | 0.822 | 0.492 | 0.465 | 0.455 | 0.63 | 0.361 | 0.858 | 0.544 | 0.486 | 0.7 | 0.364 | 0.613 | 0.935 | 0.856 | 0.838 | 0.5
FSKRIYKGMVA [PCDH15_Y931] | 0.426 | 0.231 | 0.5 | 0.262 | 0.367 | 0.369 | 0.534 | 0.392 | 0.352 | 0.402 | 0.362 | 0.332 | 0.338 | 0.773 | 0.555 | 0.462
FSVDSYDSSVR [KCNQ1_Y461_G460S] | 0.734 | 0.451 | 0.87 | 0.44 | 0.548 | 0.498 | 1.39 | 0.474 | 0.47 | 0.693 | 0.406 | 0.523 | 0.474 | 1.02 | 0.865 | 0.718
FTGNTYRVGDT [FN1_Y106_YF] | 0.634 | 0.382 | 0.464 | 0.372 | 0.472 | 0.396 | 0.667 | 0.424 | 0.293 | 0.499 | 0.394 | 0.479 | 0.476 | 0.893 | 0.853 | 0.479
FTGVEYSSCDT [EPHA3_Y937] | 1.12 | 0.629 | 0.637 | 0.478 | 0.721 | 0.491 | 1.12 | 0.524 | 0.545 | 0.905 | 0.419 | 0.755 | 0.555 | 0.832 | 1.14 | 1.92
FTRNYYVWAVL [CYBA_Y88_R90W] | 1.6 | 3.79 | 1.55 | 6.92 | 5.58 | 1.42 | 1.7 | 0.858 | 0.75 | 1.84 | 3.54 | 12 | 0.506 | 1.04 | 1.11 | 0.581

From the supplement of paper PMC10065799, “High-throughput profiling of sequence recognition by tyrosine kinases and SH2 domains using bacterial peptide display” (eLife, 2023)
